Here are results for seven molecules from patent US20110262445A1 (CEPHALON AUSTRALIA, published 2011).

The labels stand for the following.
B4: human IL-12 (ligand)
chain 1: IWELKKDVYVVELDWYPDAPGEMVVLTCDTPEEDGITWTLDQSSEVLGSGKTLTIQVKEFGDAGQYTCHKGGEVLSHSLLLLHKKEDGIWSTDILKDQKEPKNKTFLRCEAKNYSGRFTCWWLTTISTDLTFSVKSSRGSSDPQGVTCGAATLSAERVRGDNKEYEYSVECQEDSACPAAEESLPIEVMVDAVHKLKYENYTSSFFIRDIIKPDPPKNLQLKPLKNSRQVEVSWEYPDTWSTPHSYFSLTFCVQVQGKSKREKKDRVFTDKTSATVICRKNASISVRAQDRYYSSSWSEWASVPCS
chain 2: RNLPVATPDPGMFPCLHHSQNLLRAVSNMLQKARQTLEFYPCTSEEIDHEDITKDKTSTVEACLPLELTKNESCLNSRETSFITNGSCLASRKTSFMMALCLSSIYEDLKMYQVEFKTMNAKLLMDPKRQIFLDQNMLAVIDELMQALNFNSETVPQKSSLEEPDFYKTKIKLCILLHAFRIRAVTIDRVMSYLNAS
notes: Recombinant (Peprotech); FLAG-tagged IL-12 in the flow cytometry assays, biotinylated in the IL-12Rβ2 assay; also called hIL-12
B5: human IL-23 (ligand)
chain 1: IWELKKDVYVVELDWYPDAPGEMVVLTCDTPEEDGITWTLDQSSEVLGSGKTLTIQVKEFGDAGQYTCHKGGEVLSHSLLLLHKKEDGIWSTDILKDQKEPKNKTFLRCEAKNYSGRFTCWWLTTISTDLTFSVKSSRGSSDPQGVTCGAATLSAERVRGDNKEYEYSVECQEDSACPAAEESLPIEVMVDAVHKLKYENYTSSFFIRDIIKPDPPKNLQLKPLKNSRQVEVSWEYPDTWSTPHSYFSLTFCVQVQGKSKREKKDRVFTDKTSATVICRKNASISVRAQDRYYSSSWSEWASVPCS
chain 2: RAVPGGSSPAWTQCQQLSQKLCTLAWSAHPLVGHMDLREEGDEETTNDVPHIQCGDGCDPQGLRDNSQFCLQRIHQGLIFYEKLLGSDIFTGEPSLLPDSPVGQLHASLLGLSQLLQPEGHHWETQQIPSLSPSQPWQRLLLRFKILRSLQAFVAVAARVFAHGAATLSP
notes: Recombinant (Ebioscience); HIS-tagged in flow cytometry, biotinylated in some assays; also called hIL-23; rhIL-23

In experiment [1] the target is T1, IL-23R extracellular domain (human, UniProt Q5VWK5 24-355).
T1 construct: Methods print IL-23/Fc Chimera for the coated receptor; also called IL-23R-HIS; IL-23/Fc Chimera (so in the source); not shown: Fc (R&D Systems chimera) or HIS tag (in-house IL-23R-HIS)
T1 sequence: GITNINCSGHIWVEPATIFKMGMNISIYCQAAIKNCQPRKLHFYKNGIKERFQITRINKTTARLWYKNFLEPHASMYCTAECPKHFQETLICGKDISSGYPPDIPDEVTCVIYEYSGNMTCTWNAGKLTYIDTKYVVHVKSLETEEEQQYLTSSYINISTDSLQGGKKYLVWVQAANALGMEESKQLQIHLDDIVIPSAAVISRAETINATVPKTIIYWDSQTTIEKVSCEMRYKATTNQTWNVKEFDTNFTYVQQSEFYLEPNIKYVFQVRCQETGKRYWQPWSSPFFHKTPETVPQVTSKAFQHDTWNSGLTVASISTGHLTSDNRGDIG
In words: ELISA, IL-23R coated. As to the method: (§1) The plate was then washed three times with wash buffer. The wells were then blocked by adding 200 μl of blocking buffer to each well and incubating the plate at 25° C. for 1 hour. The supernatant was diluted in antibody diluent sufficient to generate a titration curve and 100 µl was added to wells then incubated for 1 hour at 25° C. The plate was then washed as previously described and 100 μl of Monoclonal Anti-FLAG® M2-HRP (Sigma-Aldrich®) at 1:1000 in antibody diluent was used to detect bound cytokine. After incubation at 25° C. for 1 hour the plate was washed again as previously described. 100 μl TMB substrate solution (Sigma-Aldrich®) was added to each well and the colour allowed to develop for 5 minutes. 100 μl of 1M HCl was added to terminate the colour development reaction and absorbance was determined at 450 nm (ref. 620 nm).
In general terms: ELISA stands for enzyme-linked immunosorbent assay.

In a further experiment the target is T2, IL-12Rβ1/Fc Chimera (human, UniProt P42701 25-545).
T2 construct: not shown: Fc of the bought R&D Systems chimera
Nature of the experiment: ELISA, IL-12Rβ1 coated. As to the method: as §1

Experiment [2] deals with T3, IL-12Rβ1 on stably transfected Jurkat cells (human, UniProt P42701 24-662).
T3 construct: whole, on cells; Cell line negative for IL-12Rβ2 and IL-23R; also called IL-12Rβ1 Jurkat cell line
In words: flow cytometry; binding blocked by Antibody 202.1. Put shortly: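 Jurkat cells stably transfected with IL-12Rβ1 were used. FLAG- or HIS-tagged cytokine at 250 ng/ml was preincubated with antibody (10 to 0.01 μg/ml, half-log dilutions) for one hour at 37° C, then cells at 10⁶/ml were added for a further hour. Cells were washed in PBS/10% FBS. Cell-bound cytokine was detected with phycoerythrin anti-HIS or FITC anti-FLAG on a Beckman-Coulter Quanta, and blocking of receptor binding was the read-out.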
On the technique in general: Flow cytometry measures light scatter and fluorescence of single cells or particles in a stream.

The experiment “human IL-23” addresses B5. In words: ELISA. In short, it runs like this: (§2)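 Each value is an absorbance measuring binding. Plates (Maxisorp) carried cytokine coated at 1 μg/mL in carbonate buffer pH 9.6 overnight at 4° C, were blocked with 1% BSA in PBS for 1 hour at 25° C, and received antibody titrations for 1 hour at 25° C. Detection used goat anti-human IgG or anti-murine immunoglobulin HRP at 1:2000 for 1 hour, then TMB stopped with 1M HCl, with absorbance taken at 450 nm (reference 620 nm).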

The target in the experiment “human IL-12” is B4. In words: ELISA. In short, it runs like this: as §2

B1: IL-23 mutant D265A (ligand)
chain: IWELKKDVYVVELDWYPDAPGEMVVLTCDTPEEDGITWTLDQSSEVLGSGKTLTIQVKEFGDAGQYTCHKGGEVLSHSLLLLHKKEDGIWSTDILKDQKEPKNKTFLRCEAKNYSGRFTCWWLTTISTDLTFSVKSSRGSSDPQGVTCGAATLSAERVRGDNKEYEYSVECQEDSACPAAEESLPIEVMVDAVHKLKYENYTSSFFIRDIIKPDPPKNLQLKPLKNSRQVEVSWEYPDTWSTPHSYFSLTFCVQVQGKSKREKKARVFTDKTSATVICRKNASISVRAQDRYYSSSWSEWASVPCSGSGSSRGGSGSGGSGGGGSKLRAVPGGSSPAWTQCQQLSQKLCTLAWSAHPLVGHMDLREEGDEETTNDVPHIQCGDGCDPQGLRDNSQFCLQRIHQGLIFYEKLLGSDIFTGEPSLLPDSPVGQLHASLLGLSQLLQPEGHHWETQQIPSLSPSQPWQRLLLRFKILRSLQAFVAVAARVFAHGAATLSP
Turning to B1, the binding result (in experiment [1]; with IL-12Rβ1/Fc Chimera) was “binds” in each case.

B2: IL-23 mutant R266A (ligand)
chain: IWELKKDVYVVELDWYPDAPGEMVVLTCDTPEEDGITWTLDQSSEVLGSGKTLTIQVKEFGDAGQYTCHKGGEVLSHSLLLLHKKEDGIWSTDILKDQKEPKNKTFLRCEAKNYSGRFTCWWLTTISTDLTFSVKSSRGSSDPQGVTCGAATLSAERVRGDNKEYEYSVECQEDSACPAAEESLPIEVMVDAVHKLKYENYTSSFFIRDIIKPDPPKNLQLKPLKNSRQVEVSWEYPDTWSTPHSYFSLTFCVQVQGKSKREKKDAVFTDKTSATVICRKNASISVRAQDRYYSSSWSEWASVPCSGSGSSRGGSGSGGSGGGGSKLRAVPGGSSPAWTQCQQLSQKLCTLAWSAHPLVGHMDLREEGDEETTNDVPHIQCGDGCDPQGLRDNSQFCLQRIHQGLIFYEKLLGSDIFTGEPSLLPDSPVGQLHASLLGLSQLLQPEGHHWETQQIPSLSPSQPWQRLLLRFKILRSLQAFVAVAARVFAHGAATLSP
As for B2, the binding result (in experiment [1]; in the experiment with IL-12Rβ1/Fc Chimera) was “binds” each time.

B3: human IL-12p40 (ligand)
chain: IWELKKDVYVVELDWYPDAPGEMVVLTCDTPEEDGITWTLDQSSEVLGSGKTLTIQVKEFGDAGQYTCHKGGEVLSHSLLLLHKKEDGIWSTDILKDQKEPKNKTFLRCEAKNYSGRFTCWWLTTISTDLTFSVKSSRGSSDPQGVTCGAATLSAERVRGDNKEYEYSVECQEDSACPAAEESLPIEVMVDAVHKLKYENYTSSFFIRDIIKPDPPKNLQLKPLKNSRQVEVSWEYPDTWSTPHSYFSLTFCVQVQGKSKREKKDRVFTDKTSATVICRKNASISVRAQDRYYSSSWSEWASVPCS
notes: p40 monomer; also called p40 subunit
With B3, the binding result in experiment [2] is listed as “binds”.
Same read-out and setting: the value for B4 was “binds”; that for B5 was “binds”.

B6: Antibody 176 (antibody, human IgG1, kappa)
heavy: not shown
light: DIQMTQSPSSVSASVGDRVTITCRASQSISINLHWYQQKPGKAPKLLIYFASQSISGVPSRFSGSGSGTDFSLTINSLQTEDFATYYCQQSNSFPLTFGGGTKVEIKRTVAAPSVFIFPPSDEQLKSGTASVVCLLNNFYPREAKVQWKVDNALQSGNSQESVTEQDSKDSTYSLSSTLTLSKADYEKHKVYACEVTHQGLSSPVTKSFNRGEC
As for B6, the binding result with human IL-23 and with human IL-12 was “binds” throughout.

B7: Antibody 178 (antibody, human IgG1, kappa, V domains shown)
VH: EVQLVQSGAEVKKPGATVKISCKASGYALSDYYLHWVRQAPEKGLEWMGWIDPENGDTEYAPKFQGRVTITADTSTDTGYLELSSLRSEDTAVYYCAANKELRYFDVWGQGTLVTVSS
VL: DIQMTQSPSSVSASVGDRVTITCRASQSISINLHWYQQKPGKAPKLLIYFASQSISGVPSRFSGSGSGTDFSLTINSLQTEDFATYYCQQSNSFPLTFGGGTKVEIKR
Regarding B7, the binding result with human IL-23 and in the experiment with human IL-12 was “binds” in each case.
